In patent US20120100207A1, “PROCESS FOR PRODUCING LIPOSOMES BY TWO-STEP EMULSIFICATION METHOD UTILIZING OUTER AQUEOUS PHASE CONTAINING SPECIFIC DISPERSING AGENT, PROCESS FOR PRODUCING LIPOSOME DISPERSION OR DRY POWDER THEREOF USING THE PROCESS FOR PRODUCING LIPOSOMES, AND LIPOSOME DISPERSION OR DRY POWDER THEREOF PRODUCED …” (KONICA MINOLTA HOLDINGS, INC., priority 2009, published 2012):

Tests used:
[1] = in an aqueous solvent; background statement; cited from earlier work
[2] = Volume mean particle diameter by dynamic light scattering particle size analyzer; assay type: physicochemical
Method: The volume mean particle diameter of liposomes in the examplesandthecomparativeexamplesdescribedbelowwasmeasured by the following method.
The W1/O emulsion was diluted with a chloroform/hexane mixed solvent (volume ratio: 4/6, the specific gravity was made equal to that of the inner aqueous phase) to 10 times, then a particle size distribution was measured with a dynamic light scattering nanotrack particle size analyzer (UPA-EX150, manufactured by Nikkiso Co., Ltd.), and based on this particle size distribution, a volume mean particle diameter was calculated.
As for the volume mean particle diameter of the specific dispersing agent which forms molecular aggregates, a liposome dispersion (also referred to as a “suspension” hereinafter) prepared in each of the following examples was subjected to the measurement as it was, using the same device. That is to say, a suspension of liposome particles prepared was diluted with a phosphoric acid buffer saline solution (PBS) to 25 times, then a particle size distribution was measured using a dynamic light scattering nanotrack particle size analyzer (UPA-EX150, manufactured by Nikkiso Co., Ltd.), and based on this particle size distribution, a volume mean particle diameter was calculated.

sodium caseinate
volume mean particle diameter of molecular aggregates (submicelles) [1]: about 15 nm | volume mean particle diameter of particles of associated molecular aggregates [1]: 100 to 200 nm | particle size distribution of associated substance of molecular aggregates ([2]; solution containing only casein having a higher concentration): 150 nm | main particle size distribution (volume mean particle diameter) ([2]; solution containing only the dispersing agent): 15 nm
